Data published in patent publication US12383631.

T1: IL-18 receptor (IL-18Rα/IL-18Rβ) on cells (HEK-Blue IL18R reporter cells, NK-92, KG-1) (human) (UniProt Q13478)
T1 sequence (looked up) 1: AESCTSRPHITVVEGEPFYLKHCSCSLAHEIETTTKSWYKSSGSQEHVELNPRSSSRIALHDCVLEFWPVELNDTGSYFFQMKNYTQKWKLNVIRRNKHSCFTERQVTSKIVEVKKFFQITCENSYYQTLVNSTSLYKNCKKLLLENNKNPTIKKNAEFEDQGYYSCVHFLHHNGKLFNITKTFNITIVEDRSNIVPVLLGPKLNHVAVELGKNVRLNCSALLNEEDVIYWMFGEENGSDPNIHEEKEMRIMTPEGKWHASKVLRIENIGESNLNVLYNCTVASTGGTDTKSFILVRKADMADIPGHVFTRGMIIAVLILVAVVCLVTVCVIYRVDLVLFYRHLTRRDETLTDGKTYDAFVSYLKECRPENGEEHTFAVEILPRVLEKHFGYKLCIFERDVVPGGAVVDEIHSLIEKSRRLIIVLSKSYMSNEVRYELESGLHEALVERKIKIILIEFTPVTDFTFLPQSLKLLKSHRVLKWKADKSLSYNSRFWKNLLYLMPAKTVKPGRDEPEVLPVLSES
T1 sequence (looked up) 2: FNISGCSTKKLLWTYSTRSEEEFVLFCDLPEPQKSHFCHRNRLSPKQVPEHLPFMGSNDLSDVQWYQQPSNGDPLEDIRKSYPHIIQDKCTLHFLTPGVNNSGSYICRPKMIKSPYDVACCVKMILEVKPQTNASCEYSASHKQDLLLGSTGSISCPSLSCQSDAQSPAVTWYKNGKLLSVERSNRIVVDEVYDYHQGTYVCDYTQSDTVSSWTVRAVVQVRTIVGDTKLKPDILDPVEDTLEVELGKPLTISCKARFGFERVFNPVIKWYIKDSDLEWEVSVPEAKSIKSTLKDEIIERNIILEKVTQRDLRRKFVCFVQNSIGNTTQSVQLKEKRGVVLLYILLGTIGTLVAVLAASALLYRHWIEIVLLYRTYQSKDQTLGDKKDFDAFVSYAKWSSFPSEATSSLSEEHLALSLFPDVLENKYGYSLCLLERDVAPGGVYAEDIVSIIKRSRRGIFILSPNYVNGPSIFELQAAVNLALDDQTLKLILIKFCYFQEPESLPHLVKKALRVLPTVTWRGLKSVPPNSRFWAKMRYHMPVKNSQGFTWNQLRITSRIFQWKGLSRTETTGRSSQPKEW

T2: human IL-18BP-His (human), O95998
T2 chain: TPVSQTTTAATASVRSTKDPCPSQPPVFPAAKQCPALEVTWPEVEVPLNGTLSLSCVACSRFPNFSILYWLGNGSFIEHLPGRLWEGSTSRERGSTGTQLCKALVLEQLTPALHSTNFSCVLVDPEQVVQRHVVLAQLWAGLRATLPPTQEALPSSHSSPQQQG


Columns and labels:
[1] = target: T1, IL-18 receptor (IL-18Rα/IL-18Rβ) on cells (HEK-Blue IL18R reporter cells, NK-92, KG-1) (human); assay: cell-based or functional assay
[2] = target: T2, human IL-18BP-His (human), O95998; assay: AlphaLISA of free IL-18BP; conditions: remark: other sources report otherwise

| EC50, IFNγ secretion, NK92 cells [1] [nM] | Kd [2] [nM] | Binder |
| --- | --- | --- |
| 0.064 | – | Composition F (Trastuzumab/Herceptin conjugated to IL-18 polypeptide of SEQ ID NO: 60) (protein, part only; not given: trastuzumab heavy and light chains, part only, chemical linker to the antibody; site not stated) YFGKLKSKLSVIRNLNDQVLFIDQGNRPLFEDMTDSDQRDNAPRTIFIISMYADSQPRGMAVTISVKCEKISTLSCENKIISFKEMNPPDNIKDTKSDIIFFQRSVPGHDNKMQFESSSYEGYFLACEKERDLFKLILKKEDELGDRSIMFTVQNED |
| – | 969 | IL-18 polypeptide of SEQ ID NO: 35 (Y01G, F02A, E06K, M51G, K53A, D54A, S55A, T63A), Q14116 37-193 (ligand) GAGKLKSKLSVIRNLNDQVLFIDQGNRPLFEDMTDSDCRDNAPRTIFIISGYAAAQPRGMAVAISVKCEKISTLSCENKIISFKEMNPPDNIKDTKSDIIFFQRSVPGHDNKMQFESSSYEGYFLACEKERDLFKLILKKEDELGDRSIMFTVQNED |
